Laboratory results from article PMC5548924, “The N-Terminal Region of Fibrillin-1 Mediates a Bipartite Interaction with LTBP1” (Structure(London, England:1993), 2017).
One block for each binder: values may come before it.

Biological target: T1, FBN1^E2cbEGF1 (fibrillin-1 EGF2-EGF3-Hyb1-cbEGF1) (human, UniProt P35555 113-287, C204 replaced with a serine)
T1 construct: fibrillin-1 (FBN1), human, domains EGF2-EGF3-Hyb1-cbEGF1; His6 tag, Ser-Ala spacer and factor Xa site (Ile-Glu-Gly-Arg) at the N-terminus, tag removed with factor Xa; 15N-labelled in some NMR titrations; Construct described in Robertson et al., 2013b; also called FBN1 EGF2-EGF3-Hyb1-cbEGF1; four-domain FBN1 fragment; not shown: His6, N-terminal, cleaved
Assay: SPR; Biacore T100; FBN1 fragments amine-coupled to a CM5 chip (1000 RU each flow cell), LTBP1 fragments as analytes; 50 mM Tris pH 7.5, 150 mM NaCl, 0.05% Tween 20, 2 mM CaCl2; 25°C; multi-cycle and single-cycle; Kd estimated from Scatchard plots
Details: both partners purified

T1 sequence (P35555 other isoform, or with tags, fused parts or gaps C204 replaced with a serine | C204 replaced with a serine): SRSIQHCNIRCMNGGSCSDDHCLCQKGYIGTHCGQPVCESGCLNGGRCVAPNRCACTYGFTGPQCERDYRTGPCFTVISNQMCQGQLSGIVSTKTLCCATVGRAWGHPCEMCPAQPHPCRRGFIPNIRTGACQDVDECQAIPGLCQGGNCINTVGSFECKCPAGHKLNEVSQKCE

Kd: ~300 µM
B1: LTBP1^cbEGF14TB3 (LTBP1 cbEGF14-TB3) (domain or fragment)
chain: MDECQDPSSCIDGQCVNTEGSYNCFCTHPMVLDASEKRCIRPAESNEQIEETDVYQDLCWEHLSDEYVCSRPLVGKQTTYTECCCLYGEAWGMQCALCPLKDSDDYAQLCNIPVTGRRQPY
modifications: Ca2+-bound cbEGF14; disulfide-bonded (refolded); limits run from the start of cbEGF14 to just after the last Cys of TB3 by convention, exact construct ends not given; vector-derived N-terminal …

Kd: 0.5 to 1 µM
B2: LTBP1^TB3E3 (LTBP1 TB3-EGF3) (domain or fragment)
chain: IRPAESNEQIEETDVYQDLCWEHLSDEYVCSRPLVGKQTTYTECCCLYGEAWGMQCALCPLKDSDDYAQLCNIPVTGRRQPYGRDALVDFSEQYTPEADPYFIQDRFLNSFEELQAEECGILNGCENGRCVRVQEGYTCDCFDGYHLDTAKMTCV

Kd: ~100 µM
B3: LTBP1^E3cbEGF15 (LTBP1 EGF3-cbEGF15) (domain or fragment)
chain: QAEECGILNGCENGRCVRVQEGYTCDCFDGYHLDTAKMTCVDVNECDELNNRMSLCKNAKCINTDGSYKCLCLPGYVPSDKPNYCT
